Laboratory results published in the supplement of paper PMC9112550, “Optimization of the antimicrobial peptide Bac7 by deep mutational scanning” (BMC Biology, 2022).

System: Escherichia coli TOP10
Assay: shrunken log2 fold change of peptide-encoding DNA abundance (4.5 h post-induction vs induction); higher = less antimicrobial activity (less host growth inhibition)
Conditions: time post-induction: 4.5 h; library: site-saturation at positions 5, 18, 19, 20
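Further: peptides expressed intracellularly from a pBAD plasmid library in pooled LB shake-flask culture, induced with 0.3% L-arabinose, DNA abundance read by NGS, three biological replicates, DESeq2 with apeglm shrinkage.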

Sequence | shrunken log2 fold change
RRIRIRPPRLPRPRPRPCTEPRP | -0.0706
RRIRNRPPRLPRPRPRPYMVPRP | -0.107
RRIRYRPPRLPRPRPRPYRLPRP | -0.173
RRIRDRPPRLPRPRPRPCVVPRP | -0.00921
RRIRNRPPRLPRPRPRPVLDPRP | -0.299
RRIRGRPPRLPRPRPRPVCFPRP | 0.997
RRIRYRPPRLPRPRPRPYMKPRP | -0.122
RRIRFRPPRLPRPRPRPCESPRP | 0.00749
RRIRYRPPRLPRPRPRPSLDPRP | -1.07
RRIRSRPPRLPRPRPRPLFEPRP | -0.0159
RRIRPRPPRLPRPRPRPWISPRP | -0.161
RRIRFRPPRLPRPRPRPIYPPRP | -0.574
RRIRFRPPRLPRPRPRPKYVPRP | -0.594
RRIRFRPPRLPRPRPRPPQNPRP | 0.536
RRIRGRPPRLPRPRPRPEHQPRP | 0.529
RRIRWRPPRLPRPRPRPFFFPRP | 0.253
RRIRKRPPRLPRPRPRPVSQPRP | 0.147
RRIRFRPPRLPRPRPRPQLAPRP | 0.0569
RRIRNRPPRLPRPRPRPQSSPRP | -0.0447
RRIRTRPPRLPRPRPRPMWHPRP | -0.391
RRIRQRPPRLPRPRPRPAIRPRP | -0.0284
RRIRTRPPRLPRPRPRPQVVPRP | -0.0349
RRIRGRPPRLPRPRPRPDFPPRP | 0.414
RRIRARPPRLPRPRPRPIEGPRP | 0.504
RRIRCRPPRLPRPRPRPQWFPRP | -0.106

Sequence | shrunken log2 fold change
RRIRMRPPRLPRPRPRPGRFPRP | 0.0931
RRIRRRPPRLPRPRPRPLVCPRP | 0.177
RRIRIRPPRLPRPRPRPPEHPRP | -0.037
RRIRLRPPRLPRPRPRPYCDPRP | -0.328
RRIRGRPPRLPRPRPRPHQNPRP | 0.58
RRIRPRPPRLPRPRPRPWTKPRP | 0.0459
RRIRVRPPRLPRPRPRPYVPPRP | -0.398
RRIRGRPPRLPRPRPRPEFVPRP | 1.15
RRIRARPPRLPRPRPRPRYSPRP | -0.121
RRIRWRPPRLPRPRPRPHWYPRP | 2.17
RRIRHRPPRLPRPRPRPTKMPRP | 0.0724
RRIRDRPPRLPRPRPRPYRNPRP | -0.00595
RRIRKRPPRLPRPRPRPCAGPRP | 0.257
RRIRRRPPRLPRPRPRPWWVPRP | 0.0496
RRIRYRPPRLPRPRPRPFQPPRP | -0.375
RRIRMRPPRLPRPRPRPQRTPRP | 1.56
RRIRFRPPRLPRPRPRPDVAPRP | 0.239
RRIRIRPPRLPRPRPRPFCTPRP | -0.542
RRIRPRPPRLPRPRPRPEYGPRP | -0.167
RRIRIRPPRLPRPRPRPWPYPRP | -0.163
RRIRDRPPRLPRPRPRPIHVPRP | -0.554
RRIRKRPPRLPRPRPRPPRLPRP | 0.678
RRIRKRPPRLPRPRPRPLGGPRP | 0.288
RRIRDRPPRLPRPRPRPEMPPRP | 0.0164
RRIRLRPPRLPRPRPRPALQPRP | 0.215

Sequence | shrunken log2 fold change
RRIRARPPRLPRPRPRPTVEPRP | 1.19
RRIRGRPPRLPRPRPRPEDNPRP | 0.892
RRIRSRPPRLPRPRPRPSFLPRP | 0.182
RRIRYRPPRLPRPRPRPRYFPRP | -0.212
RRIRWRPPRLPRPRPRPSHEPRP | 0.0227
RRIRLRPPRLPRPRPRPKLMPRP | -0.162
RRIRKRPPRLPRPRPRPGQRPRP | 0.328
RRIRKRPPRLPRPRPRPPRGPRP | 1.13
RRIRYRPPRLPRPRPRPMFRPRP | -0.296
RRIRFRPPRLPRPRPRPYIEPRP | -0.504
RRIRGRPPRLPRPRPRPGPRPRP | 1.1
RRIRQRPPRLPRPRPRPKSAPRP | -0.0082
RRIRWRPPRLPRPRPRPAFYPRP | 0.371
RRIRYRPPRLPRPRPRPTTFPRP | -0.645
RRIRWRPPRLPRPRPRPADPPRP | 0.372
RRIRSRPPRLPRPRPRPRHIPRP | -0.264
RRIRNRPPRLPRPRPRPGYSPRP | -0.42
RRIRRRPPRLPRPRPRPWKIPRP | -0.11
RRIRERPPRLPRPRPRPILSPRP | -0.316
RRIRTRPPRLPRPRPRPHETPRP | -0.00261
RRIRLRPPRLPRPRPRPLYHPRP | -0.648
RRIRYRPPRLPRPRPRPMFVPRP | -0.228
RRIRDRPPRLPRPRPRPQVLPRP | -0.178
RRIRQRPPRLPRPRPRPMWAPRP | -0.127
RRIRRRPPRLPRPRPRPLPDPRP | 0.112
